# Measurements from a protein production outcome set (Wang et al. 2014).
# Experiment: label from the status in PepcDB records
# 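Further: failed if final PepcDB status was selected cloned or expressed and not failed if soluble or beyond.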
row,Sequence,protein production
1,MGIHQYFQSLSDLENIYRCPGKFKYQEHSVAEHSYKVTSIAQFFGAVEEDAGNEVNWRALYEKALNHDYSELFIGDIKTPVKYATTELREMLSEVEESMTKNFISREIPATFQPIYRHLLKEGKDSTLEGKILAISDKVDLLYESFGEIQKGNPENIFVEIYSEALATIYEYREMASVKYFLKEILPDMLAEKGIEKTELPQLTTEITTKALRDE,not failed
2,MGIIDRRRRRAVLVVAVVAAVLIFVADALSPIDGAVAVLYTGVVLMVAPLGRKFIVVAGYISAVLALTAFLWGHASDLVGGALLRLVVSLVAILITVLLSMRDRSARISLAEQVRILEASHDTVIIRDSAGIVRYWNEGAERLYGRSRDQAIGRHYAELFDESAPVDEIDRSMREAGSWSGEVVRTRRDGARLILASRWLQRRDPEGRAIGVIEASADLTESRRAQAEQRRSERRYSTIFNSAGFAALECDLSDALSLVLSAGADVAASLRADPALLAAAVERIVICEANPAALEMFDADGPGELIVAELLAFSIPDARQALETIFVALTTGSTQIETETRFITRRGRTIDAVLRLSVLPDGTDWSRVLLMAVDVTERNEARTKIERISAELAHAGRVSVLGQLAASIAHEVNQPLAAIINYGKSGKRWLVRPTSDIGEVAECLDKIVSNANRAAEVVGRVRFLARKSAPLTDSVDLVVMLQDAIELLRREIHSVKATVRVELSTPIAMIDCDRVQVQQVFVNLLMNALQAMRGIDGHRQILVRIEDSGDSLTVAVCDTGVGIAGDPARIFEPFFSTKSDGMGLGLSICRTIIEGQGGQILASNNDGPGATVAFTLLRNNPDEGRHNRRLIS,failed
3,MGIMELARIDLSRDDLDKRIGGGIPHGSLIIIEGEESTGKSVLCQRLAYGFLQNRYSVTYVSTQLTTLEFIKQMNSLNYSINKKLLSGALLYIPVYPLIADNKKKDGFLKKVMETRAFYEKDVIIFDSISALIANDASEVNVDDLMAFFKRITALKKIIICTVNPKELPESVLTIIRTSATMLIRTELFTFGGDLKNLAKILKYNMAPGSYQKNIVFRVEPKIGIAVEIASVALEHHHHHH,not failed
4,MGKDAKAGGKGKGKQASGSEEAPSKGKGKAGKAADGLGTCTYVKARHVLCEKQGKINEAYKKLQDGWLSNGDKVPPAEFAKIAAEYSECPSGKKGGDLGWFPRGKMAGPFQDVAFNTPVGVTSAPFKSTHGYHIILSEGRKN,failed
5,MGKFLIPIEFVFLAIAMTCYLWHRQNQERRRIEISIKQQTQRERFINQITQHIRQSLNLETVLNTTVAEVKTLLQVDRVLIYRIWQDGTGSAITESVNANYPSILGRTFSDEVFPVEYHQAYTKGKVRAINDIDQDDIEICLADFVKQFGVKSKLVVPILQHNRASSLDNESEFPYLWGLLITHQCAFTRPWQPWEVELMKQLANQVAIAIQQSELYEQLQQLNKDLENRVEKRTQQLAATNQSLRMEISERQKTEAALRHTNHTLQSLIAASPRGIFTLNLADQIQIWNPTAERIFGWTETEIIAHPELLTSNILLEDYQQFKQKVLSGMVSPSLELKCQKKDGSWIEIVLSAAPLLDSEENIAGLVAVVADITEQKRQAEQIRLLQSVVVNTNDAVVITEAEPIDDPGPRILYVNEAFTKITGYTAEEMLGKTPRVLQGPKTSRTELDRVRQAISQWQSVTVEAEVLNDSYKEKKSPLK,failed
6,MGKINTDPAATSGIKVLDRAVSIMLAVAERPLSLTELCDVTNLPRATAHRLATALETHNILTRTSDGKWTIGAVLSSLGA,failed
7,MGKKIITISREYGSGGRQVGLTVAKKLGMEFYDKELIDAAAKEIGFPTEMIADREQRLTNSLLYNFAMGTLYGIAYPREPKVSELPLTEQIYQAQKKAIEEAAKRGSCIFVGRCADYILKSRPDVLRVFIYADRDIRKRRAIEEYGEIEEYIDEFMYQTDKRRRIHYENYTNQKWGSRENYDLMLNSGDLGLDKCVELLCEAVK,not failed
8,MGKPVTNEAKGVYVMSVLPNMPAAGRLEAGDRIAAIDGQPINTSEQIVSYVREKQAGDRVRVTFIRDRKQHEAELVLKPFPHHPNQIGLGVTLRTLEHHHHHH,not failed
9,MGKTKRYWLLKTEPNEWSWSDQESNGGISKWDGVKNKQAQKNLKSMTLGDLCFFYHSGTKSRCVVGVVEVSREWYTDDAEGVEGEGAVDVKAIGEMRKCVDLKEMKGDKGIITKGFVLFRQPRLSVVPVEEDVWNMICELGNGFCGDGKEDCESSDDE,failed
10,MGKVSSLKLKTNRRCIYITTIKEITEAIKADPDNAEYTAKGWDPLFHVLPTATILVISQAPGRIAQNTKTYFNDASGDRLRDWMGVTREQFYQSDRIAVMPLDFYYPGKGKSGDLPPRKGFMDKWHEPLLAMMPNVQLTLLVGQYAIKAYLGRSRQKTLTATVQNYQDYLPDYFPLVHPSPLNYGWQKKNPWFQATVVPDLQRRVQIALK,failed
11,MGKVTIIAGGIKTESRLNGLIQLAANQLANNGTEVKIIEVHKIQAEALVTADFTHPDIHLANSEIESSSGVIIATPIFKAAYSGVLKAYLDLLPLKALKGKVVLPLGLGGSNGHLLALQYALDPVLKELGAEIILKGQFTVDKQIERLGNGLYEIEITAKERLDSALNQFISLLNQNSVEVLEHHHHHH,not failed
12,MGKVYRTSQMAASILVNAIYAMKNFPITLVNTLLSPLSFLLVITLASHGRLLSVSVGGALIMSMISSGIGLQGDLSHLKNDFKLQDMVVSSPTTASVYLIGMAISEIVYSIPALAVLGVHASIYIHTTVVGVFQIVAVMVLMFSFSILLGFTLATITYDIIQSWAFSGIISTLISTIPPVYYPITYIPMPFRYAAYASPTTYGAELVQSAIGFVHLSGASFIVDWVILIMINVVFFIIALKKARWREI,failed
13,MGLDDLVGQWLLPGMALAAVGVFFCIKGYLLRRQMARDALTDALTVGELRRRVHALVLGKRQRVYSGAMFLVEVVHHPELSAMLGLEDNKLLLAMIAQRLQMQSDYFQVARHSSDSFMVWAPDLDPRSARDVAPEVLDALSQPYELRGQPLIVGFRLSGALYAQHGACFDELERSLHIAMLHLDESAGAAWNMFEPSMLEHQRHYQGLEHDLRVALVSSSMDQFEVCYQPVCDSVTGTIYGCEALLRWHHPVHGDVSPALVIELAERTGLIVPLGAWVLETACSRAITWPAAWRLHVNVSVRQMYADELPAQVALALAASRLSAQRLVLEITESLFIQQYERHVATLNGMRAKGVRVALDDFGAGYSSLTHLRRLPIDWVKLDRGFVAEIEFDAVSREVVSALMGMCRALGLAVVAEGVETPAQREILKALGCREMQGFLLGRPVSAERIRELGAAVS,failed
14,MGLFELNLAIILFIIGNFIGLEYSYRKYSSPYVEKGIDKFALAISVFGGILINSPLYMLGCLLIGFPLGMRPGYGRVEFVVGLAVALFLYFLRW,failed
15,MGLKNIVVFVEPSNAGATRARYAVELARRHGAHLIGIFVASSDGPIPANAYVRGRDAMRRLIELHDANAIETTSVASRNFNTATNSADITYEFRIIREIESDDTKLHCLHADLVIVGHPRPGGLPLYSSAEGLLLATGIPFLIVPDGWPSGAVAQRVLLAWNASREARRAITDSLPLLSAAQSVSIVVIDSAKNRLHGENPGADVAVYLSRHGAHVTTEQIDSNGSPIADVILQHAVHGGFDLIVLGAYSHARVREAVFGGVTRSLLKLATIPMLIAH,failed
16,MGLNIKPLVVSVLGSVLLAGCATAPPKQQDNLCEIFREKSGWYDDAKYMEKEWGTPIHVAMAIIKQESSFRHDAKPPKDYVLGFIPWGRVSSAYGYAQAQDPAWDDFQDSTGQGGSRSNFDDSIMFVGWYTHETRRQLGISLWDPYNQYLAYHEGRGGYKRGTYKRKPSLMKVARRVEQTAKTYGWQLKQCRQELEDNSSWFF,failed
17,MGLSHKFQVKQFVEISPYSQSRLRHEQPQTPIHSDITTYHCHRGQFDIVAGGLPCQGTSNAGNRQGLDDPRSALWAEQFRIIESDRPAIALIENPTGLLYRGLEQIICDLDSIGYMGEWNCISAQQVGLPHQRKRIFIIAYSNGLFNQVVPAPWSNQIGNHITQVRLSLETRSYQPGISKVASRIPIGVAKNIPGNYDARRAYGLSCSPRQAAVAWKRIDYLCSLLEHHHHHH,failed
18,MGLVTDEVRARAEKYTGDEICREKTKEFLKEVSMPNGLLPLKDIEEVGYDRETGIVWLKQKKSITHKFEAIGKLVSYATEVIAQVEVGKIKKLTGVKAKELLIWVTLNELVLEQPTSSGKINFRTPTGLSRTFPVSAFVVPEVEKPATEKNNGTTEVKEAVAVTDA,failed
19,MGLVVSARSVSPLKKWPSRVRSFSINMGQPKSGQGWKLGACCPANRHNRERTRSCAPAGLTCLRPAPAPWACLGLDLCPSLGLDLGPSLGLALRSGPAEETMDPAGRARGQGATAGGLLLRAAAAAKGLREDLWGAAALPWRSLSRIPKREGLGEEDTAVAGHELRESRDEVSENQAAGRAGSKGLEKVPRAAPPDAAGGKLARRLSPGTPSPSLHRCTPLLPNERSFQNAAKSNNLDLMEKLFEKKVNINVVNNMNRTALHFAVGRNHLSAVDFLLKHKARVDVADKHGLTVIHLAAWSGSLEVMLMLVKAGADQRAKNQDGMSALHFATQSNHVRIVEYLIQDLHLKDLNQPDEKGRKPFLLAAERGHVEMIEKLTFLNLHTSEKDKIQWSTLWTAALTKMKTSRNSIAALTIEGACSPGTGVSTSSVSLLQGGNTALHLAAKHGHSPAVQVLLAQWQDINEMNELNISSLQIATRNGHASLVNFLLSENVDLHQKVEPKESPLHLVVINNHITVVNSLLSAQHDIDILNQKQQTPLHVAADRGNVELVETLLKAGCDLKAVDKQGKTALAVASRSNHSLVVGMLIKAERYYAWREEHHESIRDPSTGFTLTFKQDHSLETRHIRTLLWDLAYHQLKANEWQRLARSWNFTDDQIRAIEEQWSDENLGNIESLLGINQLISFENNEANMFLGKVFYSEHCPLMDILRREGVLAQGSICIRDCWELGMAEAQSMSTHYLYHIQEAVYRNIILTSYSPSVVLAVAHTEYGTMEGACKLSAASPLGNDPVNTGYSLAWQFCVIPLLSI,failed
20,MGMDLRVVPAEEWLNRGIDSSHDGEHDLGLMVTDFLETGGGSGGAGSWCSSDSDSGFPDPSYLSDKIQYLKYSMAQHETEVLSVVRTLMLTIKEKDLHSVKSGTCNASCIRFYLAKLLRLSGYDAAVCSARWQGGGKVPGGDNEYIDIILSDTEVGQDDRLIVDIDFRSHFEIARAVDSYQRIMESLPVVYVGTVARLNQFLQVMVDAAKFSLKQNSMPLPPWRSLNYLRSKWHSPHKRHLGPIDQQGPGMFSPGLHGQCAENLKRLQFALQVEQEAERFMKKKSGFSRRN,failed
21,MGMFERDTEIYLDRDALREDYQPENLVGRDTELNRYRAALQPVINGEQPNNIFLYGKTGVGKTAGTRYLIDHLEEDAAKYEDIDLTVKMLNCDGLSSSYQIATRLVNEFRDETSQISTTGYPRATVYDMLWTELDSCGGTIYIVLDEVDHIEDDSILYQLPRARANDNLSSAKIGIIGISNDFSFRDDLSPKVKSSLCEEEIQFPAYDAKELIQILQQRADVAFHDGVLEDGVIELCAAYGAKDAGDARQSLDLLMKTGDLARDKDTDTISEDLVREARDVLERGRIQEGISGLTQHGHLVVYAMVTLDQEGKTPARTRDIRPRYTNFAEKAGIDPLVPRRMRDHLGELSMLGIISAIERNEGRRGGTYREYSLEMDPEMILAALEKTVDDVGIHKSVTNLVDAEATLSDFQST,failed
22,MGMKYWSSKRRLYLTPVSFGFACSALLMLGTLSSYPDWLTCNPAPVVNQNDAVIYYFFRNIMMAVLFMSSIILYYFRQRIMHSWKAHVLTFTACILFTLTIIVLSWLYSSHSPWLSVNFIDDLSHTFTPLWQSIIGWLLMAVWFITLILLISLSKLRNIFWFSGAFFCSAYLFTLFQLLSTAGELDQTWYQARFFETLCTLFLILVLLVDVFILYRESNHKYVHSYQNSIRDPLTRLYNRSFFYDTLNQQLAKVNAQHPLSVLISDLDHFKRINDSYGHVAGDKVIQFAASVLESHSRVDDAAARIGGEEFALLLVNTGEKEAQAIAERIRLAVSAGESHLPERMTISMGVYTTYDNSVTAEACVQRADEAMYEAKNNGRNQVIVWHQQGG,failed
